{"source": "patent US5849703A", "about": "“Pre-formed anticoagulant heparin/TFPI complexes” (G. D. Searle & Co., priority 1996, dated 1998)", "key": {"[1]": {"experiment": "Solubility of FL-TFPI and heparin/FL-TFPI complexes", "text": "The solubility of non-glycosylated recombinant E. coli-derived FL-TFPI [Diaz-Collier, et al., Thromb."}, "[2]": {"test_system": "TF-induced clotting in human plasma", "experiment": "Dilute prothrombin time (dPT) assay: TF-induced clotting of human plasma", "format": "biochemical", "details": "1:4 dilution of Simplastin", "procedure": "dPT assay was carried out using 1:4 dilution of Simplastin®. Closed square and closed triangle on the abscissa indicate the clotting times of the plasma supplemented with control buffer and 2 μg/ml FL-TFPI, respectively.\ndPT assay was carried out using 1:40 dilution of Simplastin®. Closed square and closed triangle on the abscissa indicate the clotting times of the plasma supplemented with control buffer and 0.3 μg/ml FL-TFPI, respectively.\n(§1) Rabbit brain thromboplastin (TF;Simplastin®) was diluted to varying degrees ranging from 1:4 to 1:50 with a buffer containing 12.5 mM CaCl2, 75 mM NaCl, 0.5 mg/ml bovine serum albumin, and 0.02% NaN3, for determination of TF-induced clotting time in human plasma. Fifty (50) μl of human plasma were mixed with 50 μl of DB, heparin, TFPI, or preformed complexes of heparin/TFPI in DB in the well of a Fibrometer at 37° for 1 min. Two hundred (200) μl of appropriately diluted thromboplastin reagent were then added and the time to clotting was determined.\n(§2) The dPTs reported here are the average of 2 to 8 determinations, depending on the length of the clotting time. When the clotting time was short (<100 sec), the variations between determinations are small and 2-4 assay values were averaged for each data point. When the clotting time is long (>100 sec), the variations between determinations are larger and 5-8 assay values are averaged for each data point. […] The concentrations of heparin and TFPI are expressed as units or μg per ml of plasma, not as that in the final assay mixture.\nIn one-stage TF-induced plasma clotting assay, clotting time is dependent on the concentration of TF and the concentrations of anticoagulants present. […] In the absence of added anticoagulants, the addition of this concentration of TF caused the plasma to clot in 20 sec (closed square)."}, "[3]": {"test_system": "TF-induced clotting of TFPI-depleted plasma", "experiment": "dPT assay in TFPI-depleted plasma (1:50 dilution of Simplastin)", "format": "biochemical, human", "details": "for prolongation of clotting time: increasing concentrations, alone, 1:50 dilution of Simplastin", "procedure": "FIG. 2B: Effects of CT-TFPI (.quadrature.), heparin (.circle-solid.), and sequential addition of CT-TFPI and heparin (.tangle-solidup.) on clotting time. dPTs were determined as described in METHODS using 1:50 dilution of Simplastin®.\nPooled plasma was prepared by mixing four (4) units of individual plasmas, and TFPI-depleted pooled plasma was obtained by passing the pooled plasma through a rabbit anti-human TFPI-Ig Sepharose® 4B column as described previously [(Wun, J. Biol. Chem. 265:16096-16101 (1990)].\nas §1, §2\nIn the present work, FL-TFPI and CT-TFPI were separated by Mono S chromatography as described before [Wun, et al., Thromb. Haemost. 68, 54-59 (1992)], and the effects of heparin, FL-TFPI, or CT-TFPI alone, and combinations of heparin/FL-TFPI, and heparin/CT-TFPI were compared. FIGS. 2A and B show the results."}, "[4]": {"test_system": "intrinsic and the common pathways", "experiment": "Activated partial thromboplastin time (APTT) assay", "format": "biochemical, human", "procedure": "(§3) Measurement of PT and APTT are as described in METHODS. PT and APTT ratios are calculated by dividing the clotting times in the presence of the indicated amounts of FL-TFPI or heparin by the clotting times in the absence of anticoagulants.\nNinety (90) μl of plasma were mixed with 10 μl of DB, FL-TFPI solution, or heparin solution in the Fibrometer well at 37° for 1 min. One hundred (100) μl of Dade's activated cephaloplastin reagent were added and the mixture was incubated for exactly 2 min. A calcium solution (100 μl of 25 mM CaCl2) was added and the time to clotting was recorded.\n(§4) PT is a global test that primarily measures the functionality of the extrinsic and the common pathways; while APTT is a procedure which evaluates that of the intrinsic and the common pathways. The individual effects of heparin and FL-TFPI on PT and APTT were examined to determine the primary sites of their actions."}, "[5]": {"test_system": "fibrin-dependent glomerulonephritis model", "details": "clinical dose of heparin; cited from earlier work"}, "[6]": {"test_system": "factor Xa", "details": "purified system; cited from earlier work"}, "[7]": {"test_system": "extrinsic and the common pathways", "experiment": "Prothrombin time (PT) assay", "format": "biochemical, human", "procedure": "as §3\nNinety (90) μl of plasma were mixed with 10 μl of DB (dilution buffer containing 10 mM Tris/HCl, pH 7.4, 150 mM NaCl, 1 mM Na2 SO4, 1 mg/ml bovine serum albumin, and 0.02% NaN3), FL-TFPI solution, or heparin solution in the Fibrometer well at 37° for 1 min. Two hundred (200) μl of Simplastin® were then added and the time to clotting was recorded.\nas §4"}, "[8]": {"experiment": "Pharmacokinetics following bolus injection in rabbits", "format": "in vivo, rabbit", "details": "for tα: bolus FL-TFPI 1.5 mg/kg or heparin 1.9 mg/kg/FL-TFPI 1.5 mg/kg; for % AUCα / % AUCβ / Clearence / Vd / tβ: bolus", "procedure": "The pharmacokinetics study was carried out as described in METHODS. Rabbits were injected with a bolus of FL-TFPI (1.5 mg/kg) or heparin (1.9 mg/kg)/FL-TFPI (1.5 mg/kg) complex.\n(§5) Plasma levels of TFPI antigen were measured by PCFIA assay. Functional TFPI activity in the plasma was also measured by dPT assay using each rabbit's own control plasma supplemented with known concentrations of FL-TFPI as a reference standard [Palmier, et al., Thromb. Haemost. 68, 33-36 (1992)]. Data from individual animals were fitted to the general bi-exponential equation: […]\nwhere C is the concentration of TFPI at time t, and A and B are the intercept values (to) extrapolated from a and b, the first order elimination rate constants."}, "[9]": {"experiment": "Plasma levels of TFPI following bolus injection and constant infusion", "format": "in vivo, rabbit", "details": "infusion of 11.4 μg/kg/min FL-TFPI, 4 h; PCFIA", "procedure": "For FL-TFPI, a bolus of 0.5 mg/kg was injected through the femoral vein followed by constant infusion of FL-TFPI (11.4 μg/kg/min).\nFor heparin/FL-TFPI, a bolus of preformed heparin (0.24 mg/kg)/FL-TFPI (0.19 mg/kg) complex was injected followed by constant infusion of heparin (5.4 μg/kg/min)/FL-TFPI (4.3 μg/kg/min) complex. Infusions were carried out over a 4-h period. Plasma levels of TFPI were measured by PCFIA assay.\nFor constant infusion studies, a bolus of FL-TFPI (0.5 mg/kg) or pre-formed heparin (0.24 mg/kg)/FL-TFPI (0.19 mg/kg) complex was injected through the femoral vein, followed by constant infusion of FL-TFPI (11.4 μg/kg/min)or heparin (5.4 μg/kg/min)/FL-TFPI (4.3 μg/kg/min) complex over a 4-hr period. Blood collection and plasma sample preparation were carried out as described above.\nas §5"}, "[10]": {"details": "pH 7.4"}, "[11]": {"details": "cited from earlier work"}, "[12]": {"details": "bolus injection, rabbits, PCFIA"}, "[13]": {"details": "individual rabbits #1-#3, PCFIA"}, "[14]": {"details": "up to 40 μg/ml N-acetyl heparin (FIG. 5)"}}, "note": "Several values for one entry are separate records, joined by “and”; a condition that tells them apart may be missing. Equal values may be shown once. Entries after “also recorded” stand apart in the source; their conditions may differ. Read-outs that look alike come from different tables or passages of the source."}
{"substance": "non-glycosylated recombinant E. coli-derived FL-TFPI: non-glycosylated recombinant E. coli-derived FL-TFPI", "values": [{"measurement": "solubility", "setting": "[1]; Dulbecco's phosphate-buffered saline, estimated", "value": "approximately 200 μg/ml"}, {"measurement": "solubility", "setting": "[1]; saline solutions, compared with glycosylated FL-TFPI", "value": "even lower"}]}
{"substance": "heparin", "values": [{"measurement": "prolongation of the clotting time", "setting": "[2]; 10 μg/ml heparin alone", "value": 26, "unit": "s"}, {"measurement": "clotting time", "setting": "[2]; heparin beyond 1.25 μg/ml (FIG. 3)", "value": "progressively prolonged"}, {"measurement": "clotting time", "setting": "[2]; heparin up to 1.25 μg/ml (FIG. 3)", "value": "did not alter the clotting time"}, {"measurement": "prolongation of clotting time", "setting": "[3]", "value": "increasingly prolong the clotting time in a moderate manner"}, {"measurement": "APTT ratio increase compared with PT ratio", "setting": "[4]; FIG. 1", "value": "much greater increase of APTT ratio than PT ratio"}, {"measurement": "primary site of action", "setting": "[4]; from PT and APTT ratios", "value": "mainly inhibits the intrinsic pathway"}, {"measurement": "beneficial effect on the disease process", "setting": "[5]", "value": "did not produce a beneficial effect on the disease process"}, {"measurement": "rate of factor Xa inhibition by TFPI", "setting": "[6]", "value": "enhances the rate of factor Xa inhibition by TFPI in a concentration dependent and biphasic manner"}]}
{"substance": "FL-TFPI: Recombinant full-length (FL-) TFPI, tissue factor pathway inhibitor", "values": [{"measurement": "prolongation of the clotting time", "setting": "[2]; 2 μg/ml FL-TFPI alone", "value": 58, "unit": "s"}, {"measurement": "clotting time", "setting": "[2]; 2 μg/ml FL-TFPI alone (FIG. 3)", "value": 78, "unit": "s"}, {"measurement": "clotting time", "setting": "[2]; 2 μg/ml FL-TFPI alone (FIG. 5)", "value": 90, "unit": "s"}, {"measurement": "clotting time", "setting": "[2]; 2 μg/ml FL-TFPI alone (FIG. 6)", "value": 82, "unit": "s"}, {"measurement": "potency in prolonging the clotting time compared with CT-TFPI", "setting": "[3]; FIG. 2", "value": "much more potent in prolonging the clotting time than CT-TFPI; also recorded: far more potent than CT-TFPI in prolonging the TF-induced clotting time; also recorded: far more potent than CT-TFPI alone or in combination with heparin"}, {"measurement": "prolongation of clotting time", "setting": "[3]", "value": "increasingly prolong the clotting time in a moderate manner"}, {"measurement": "PT ratio increase compared with APTT ratio", "setting": "[7]; FIG. 1", "value": "much greater increase of the PT ratio than the APTT ratio"}, {"measurement": "primary site of action", "setting": "[7]; from PT and APTT ratios", "value": "primarily affects the extrinsic pathway"}, {"measurement": "clearance of TFPI antigen (PCFIA) vs functional TFPI activity (dPT)", "setting": "[8]; bolus injection, rabbits", "value": "closely matched"}, {"measurement": "faster overall clearance relative to heparin/FL-TFPI complex", "setting": "[8]; bolus injection, rabbits", "value": "~ 2.6 fold"}, {"measurement": "overall clearance", "setting": "[8]; bolus injection, rabbits", "value": 5.7, "unit": "mL/min/kg"}, {"measurement": "t1/2α", "setting": "[8]; [12]", "value": 1.4, "unit": "min"}, {"measurement": "t1/2β", "setting": "[8]; [12]", "value": 92, "unit": "min"}, {"measurement": "tα", "setting": "[8]; [13]", "value": "1.5 min and 1.7 min and 1.0 min"}, {"measurement": "% AUCα", "setting": "[8]; [13]", "value": "9.4% and 7.2% and 7.9%"}, {"measurement": "% AUCβ", "setting": "[8]; [13]", "value": "90.6% and 92.8% and 92.1%"}, {"measurement": "Clearence", "setting": "[8]; [13]", "value": "5.9 mL/min/kg and 4.3 mL/min/kg and 6.8 mL/min/kg"}, {"measurement": "Vd", "setting": "[8]; [13]", "value": "0.118 L/kg and 0.115 L/kg"}, {"measurement": "tβ", "setting": "[8]; [13]", "value": "89 min and 96 min and 91 min"}, {"measurement": "tα", "setting": "[8]; mean of 3 rabbits (±SEM on separate line), PCFIA", "value": 1.4, "unit": "min"}, {"measurement": "% AUCα", "setting": "[8]; mean of 3 rabbits, PCFIA", "value": 8.2, "unit": "%"}, {"measurement": "% AUCβ", "setting": "[8]; mean of 3 rabbits, PCFIA", "value": 92, "unit": "%"}, {"measurement": "Clearence", "setting": "[8]; mean of 3 rabbits, PCFIA", "value": 5.7, "unit": "mL/min/kg"}, {"measurement": "Vd", "setting": "[8]; mean of 3 rabbits, PCFIA", "value": 0.117, "unit": "L/kg"}, {"measurement": "tβ", "setting": "[8]; mean of 3 rabbits, PCFIA", "value": 92, "unit": "min"}, {"measurement": "% AUCβ", "setting": "[8]; mean of 3 rabbits, PCFIA, listed as TFPI", "value": 91.8, "unit": "%"}, {"measurement": "steady state plasma level of TFPI", "setting": "[9]", "value": "~ 2 μg/ml"}, {"measurement": "solubility", "setting": "[10]", "value": "exceeds 5 mg/ml"}, {"measurement": "NaCl required for dissociation from heparin", "setting": "[11]", "value": "0.6 to 1", "unit": "M"}]}
{"substance": "N-acetyl heparin", "values": [{"measurement": "clotting time", "setting": "[2]; [14]", "value": "~ 18 sec"}, {"measurement": "clotting time (in words)", "setting": "[2]; [14]", "value": "did not alter the clotting time"}]}
